Results: article PMC8193015
Like-named read-outs stand apart in the source and are kept apart here. Ends that are not written are not given here.

Columns and labels:
[1] = molecular target: soluble DR4 (sDR4) recombinant protein (human); assay: ELISA
[2] = molecular target: “empty” DQ6 (DQA1*01:02/DQB1*06:02) with leucine zippers displayed on yeast as a noncovalent αβ heterodimer (human); assay: flow cytometry on cells
[3] = molecular target: soluble DQ6 (sDQ6) recombinant protein, CLIP87–101 linker cleaved by thrombin (human); assay: ELISA
[4] = molecular target: soluble DQ6 (sDQ6) recombinant protein, CLIP87–101 linker cleaved by thrombin (human); assay: ELISA; remark: listed apart in the source
[5] = molecular target: “empty” DQ6 (DQA1*01:02/DQB1*06:02) with leucine zippers displayed on yeast as a noncovalent αβ heterodimer (human); assay: flow cytometry on cells; remark: listed apart in the source

In the case of HA306–318 peptide, nonbiotinylated, the %Competition at [competitor]:[indicator] = 10 [1] is reported as 75%.

In the case of “HCRT1–15 peptide (from UniProt O43612 1-15)”, the %Competition [2] is reported as over 50%.

With “HCRT21–35 peptide (from UniProt O43612 21-35)” the %Competition [2] was over 50%.

For “HCRT25–39 peptide (from UniProt O43612 25-39)”, the %Competition [2] was over 50%.

“HCRT53–67 peptide (from UniProt O43612 53-67)” showed a %Competition [2] of over 50%.

For “HCRT57–71 peptide (from UniProt O43612 57-71)”, the %Competition [2] was over 50%.

With “HCRT81–95 peptide (from UniProt O43612 81-95)” the %Competition [2] was over 50%.

In the case of “HCRT85–99 peptide (from UniProt O43612 85-99)”, the %Competition [2] is reported as over 50%.

Molecule “HCRT89–103 peptide (from UniProt O43612 89-103)” has a %Competition at [competitor]:[indicator] = 100 [3] of over 75%, a %Competition [2] of over 75% and a %Competition at [competitor]:[indicator] = 10 [2] of over 75%.

For “SARS-CoV-2 spike peptide S652–668 (from UniProt P0DTC2 652-668)”, the %Competition at [competitor]:[indicator] = 100 [1] was under 50%.

In the case of “SARS-CoV-2 spike peptide S1058–1074 (from UniProt P0DTC2 1058-1074)”, the fold weaker BA than HA306–318 (IC50 normalised to HA306–318) [1] is reported as 20 fold.

With MNLPSTKVSWAAV (not fully specified) [HCRT1–13 peptide, nonbiotinylated] the %Competition at [competitor]:[indicator] = 10 [4] was 75%, the %Competition at [competitor]:[indicator] = 10 [5] was 75% and the IC50 [5] was 30 µM.
